Laboratory results taken from the RNAGym collection of RNA variant scans (doi:10.1073/pnas.2313332121).
Variants at the floor of the assay were thinned out.

B1: TPR 5TU (parent)
chain: GGAUCUUCUCGAUCUAACAAAAAAGACAAAUCUGCCACAAAGCUUGAGAGCAUCUUCGGAUGCAGAGGCGGCAGCCUUCGGUGGCGCGAUAGCGCCAACGUUCUCAACUAUGACACGCAAAACGCGUGCUCCGUUGAAUGGAGUUUAUCAUG

Variants of: B1
Assay: polymerase ribozyme fitness, log enrichment relative to wild type (log ratio); higher = more active; in vitro selection for triplet polymerase activity
Method in brief: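 Input and output libraries were sequenced on Illumina after a single in vitro selection round, run in triplicate on PCR-built, transcribed mutant libraries of each subunit of a heterodimeric triplet polymerase ribozyme. Selection annealed libraries to a biotinylated primer, the partner subunit and triplets, incubated them frozen at −7 °C, then gel-excised extended constructs for streptavidin-bead capture and RT-PCR. Genotypes with ≥10 input reads and ≥1 read per output were kept. Fitness is the logarithm, taken in base 2, of genotype enrichment divided by wild-type enrichment, using inverse-variance-weighted replicate averages.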

First: GGAUCUUCUCGGUCUAACAAAAAAGACAAAUCUGCCACAAAGCUAGAGAGCAUCUUGGGAUGCAGAGGCGGCAGCCUACUGUGGCGCGAUAGCGCCAACGUUAUCAACUAUGACACGGAAAACGCGUGCUCCGUUGAAUGGAGUUUAUCAUG
Second: GGAUCUUCUCGUUCUAACAGAAAAGACAAAUCUGCCACAAAGCUUGAGAGCUUCUUCGGAUGCAGAGGCGGCAGCCUUCGGUGGCGCGAUAGCGCCAACGUUCUCAACUAUGACACGCAAAACGCGUGCUCCGUUGAAUGAAGUUUAUCAUG
The “polymerase ribozyme fitness (log ratio)” value of the first is lower: no more than -4.2 for the first, -3.17 for the second.

GGAUCUUCUCGGUCUAACAAAAAAGACAAAUCUGCCACAAAGCUUGAGAGCAUCCUGGGAUGCAGAGGCGGCAGCCUUCGGUGGCGGGAUAGCGCCAACGUUCUCAACUAUGACACGCAAGACGCGUGCUCCGUUGAAUGGAGUUUAACCUG and GGAUCUUCUCGUUCUAUUAAAAAAGACAAAUCUACCACAAAGCUUGAGAGCAUCUUCGGAUGCGGAGGCGGCAGCCUUCGGUGGCGGGAUAGCGCCAACGUUCUCAACUAUGACACGCAAAACGCGUGCUCCGUUGAAUGGAGUUUAUCAUG cannot be ordered by “polymerase ribozyme fitness (log ratio)” value: no more than -4.2 for the first, no more than -4.2 for the second.

Going from GGAUCUUCUCGUUCUAGCAAAAGAGACAAAUCUGUCACAAAGCUUGAGAGCAUCUUCGGAUGCAGAGGCGGCAGCCUUCGGUAGCGGGAUAGCGCCAACGUUCUCAACUAUGACACGCAAAACGCGUGCUCCGUUUAAUGGAGUUUAUCAUG to GGAUCUUCUCGUUCUACCAAACAAGACAAAUCUGCCACAAAGCUUGAGAGCAUCUUCGGAUGCAGAGGCGGCAGCCUUCGGUGGCGCGAUAGCGCCAACGUUCUCAACUAUGACACGCAAAACGCGUGCUCCGUUGAAUGGCGUUUAUCAUG, the “polymerase ribozyme fitness (log ratio)” value rises from no more than -4.2 to -2.44.

Compared with GGAUCUUCUCGGUCUAACAAAAAAGACAAAUCUGCCACAAAGCUUGAGAGCAACUUCGGAUGCAGAGGCGGCAGCCUUCGGUGGCGCGAUAGCGCCAACGUUCUCAACUAUGACACGCAAAACGCGUGCUCCGUUGAAUGGAGUUUAUCAUG, GGAUCUUCUCGGGCUAACAAAAAAGACAAAUCUGCCACAAAGCUUGAGAGCAUCUUCGGAUGCAGAGGCGGCAGCCUUCGGUGGCGCGAUAGCGCCAACGUUCUCAACUAUGACACGCAAGACGCGUGCUCCGUUGAAUGGAGUUUAUCAUG is lower in “polymerase ribozyme fitness (log ratio)” value: -0.69 for the first, -2.27 for the second.

GGAUCUUCUCGGUCUAACAAAAAAGACAAAUCUGCCACAAAGCUUGAGAGCAUCUUCGGAUGCAGAGGCGGCAGCCUGCGGUGGCGCGGUAGCGUCAACGUUCUCAACCAUGACACGCAAAACGCGUGCUCCGUUGAAUGGAGUCUAUCGUG and GGAUCUUCUCGGUCAAACAAAAAAGACAAAUCUGCCACAAAGCUUGAGAGCAUCGUCGGAUGCAGAGGCGGCAGCCUUCGGUGGCGGGAUAGCGCCAAGGUUCUCAACUAUGAAACGCUAAACGCGUGCUCCGUUGAAUGGAGUUUAUCAUG cannot be ordered by “polymerase ribozyme fitness (log ratio)” value: no more than -4.2 for the first, no more than -4.2 for the second.

Going from GGAUCUUCUCGUUCUAACAAUAAAGACAAAUCUGCCACAAAGCUUGAGAGCAUCUUCGGAUGCAGAGGCGGCAGCCUUCGGUGGCGGGAUAGCGCCAAUGUUCUCAACUAUGACACGCAAAACGUGUGCUCCGUUGAAUGGAGUUUAUCAUG to GGAUCUUCUCGGUCGAACAAAAAAGACAAAUCUGCCACAAAGCUUGAGAGCAUCUUCGGAUGCAGAGGAGGCAGUCUUCGGUGGCGCGAUAGCGCCAACGUUCUCGACUAUGACACGCAGAACGCGUGCUCCGUUGAAUGGAGUUUAUCAUG, the “polymerase ribozyme fitness (log ratio)” value rises from no more than -4.2 to -2.52.

First: GGAUCUUCUCGGUCUAACAAAAAAGACAAAUCCGCCACAAAGCUUGAGAGCAUCUUCGGAUGCAGAGGCGGCGGCCUUCGGUGGCGCGAUAGCGCCAACGUUCUCAACUAUGACACGCAAAACGCGUGCGCCGUUGAAUGGAGUUUAUCAUG
Second: GGAUCUUCUCGGUCUAACAAAAAAGACAAAUCUGCCACAAAGCUUGAGAGCAUCUUCGGAUGCAGAGGCGGCAGCCUUCGGUGGCGCGAUAGCGCCAACGUUCUCAACUAUGACACGCAAAACGCGUGCUCCGUUGAAUGGAGGUUAUCAUG
The “polymerase ribozyme fitness (log ratio)” value of the first is lower: -3.56 for the first, 0.592 for the second.

Going from GGAUCUUCUCGGUCUAACAAAAAAGACAAAUCUGCCACAAAGCAUAAGAGCAUCUUCGGAUGCAGCGGCGGCAGCCUUCGGUGGCACGAUAGAGCCUACGUUCUCAACUAUGACACGCAAAACGCGUGCUCCGUUGAGUGGGGUUUAUCAUG to GGAUCUUCUCGGUCUAACAAAAAAGACAAAUCUGCCACAAAGCUUGAGAGCAUCUGCGGAUGCAGAGGCGGCAGCCUUCGGUGGCGCGAUAGCGCUAACGUUCUCAACUAUGACACGCAUAACGCGUGCUCCGUUGAAUGGAGUUUAUCAUG, the “polymerase ribozyme fitness (log ratio)” value rises from no more than -4.2 to -0.669.

First: GGAUCUUCUCGGUCUAACAAAAAAGACAAAUCUGCCACAAAGCUUGAGAGCAUCAUCGGAUGCAGAGGCGGCAGCAUUCGGUGGCGCGAUAGAGCCAACGUUCUCAACUAUGACACGCAGAACGCGUGCUCCGUUGAAUGGAGUUUAUCAUG
Second: GGAUCUUCUCGGUCUAACAAAAAAGACAAAUCUGCCACAAAGCUUGAGAGCAACUACGGAUGCAGAGGCGGCAGCCUUCGGGGGCGCGAUUGCGCCAACGUUCUCAACUAUGACACCCAAAACGCGUGCUCCGUUGAAUGGGGUUUAUCAUG
The “polymerase ribozyme fitness (log ratio)” value of the first is higher: -3.73 for the first, -4.16 for the second.

With GGAUCUUCUCGUUCUAACAGCAAAGACAAAACUGGCACAAAGCUUGAGAGCAUCUUCGGAUGCAGAGGCGGCAGCCUUCGGUGGCUCGAUGGCGCCAACGUUCUCAACUAUGACACGCUAAACGCGUCCUCCGUUGAAUGGAGUUUAUCAUG the “polymerase ribozyme fitness (log ratio)” value was -3.91.
